# Measured values from article PMC5861437.
# What was measured:
# [1] = target: H.CglI R408A (Motif VI mutant) (Corynebacterium glutamicum); test: SEC
# [2] = target: H.CglI ΔL (a deletion of the residues 165–172), Loop 163–172 mutant (Corynebacterium glutamicum); test: SEC
# [3] = target: H-subunit of the restriction endonuclease CglI (H.CglI), wild type (Corynebacterium glutamicum); test: SEC + other: SAXS
# [4] = target: H.CglI L1 (V169A), Loop 163–172 mutant (Corynebacterium glutamicum); test: SEC
# [5] = target: H.CglI R379A (Motif V mutant) (Corynebacterium glutamicum); test: SEC
# [6] = target: H.CglI H282A + H290A (H/H motif double mutant) (Corynebacterium glutamicum); test: SEC
# [7] = target: H.CglI H290A (H/H motif mutant) (Corynebacterium glutamicum); test: SEC
# [8] = target: H.CglI Q405A (Motif VI mutant) (Corynebacterium glutamicum); test: SEC
# [9] = target: H.CglI H282A (H/H motif mutant) (Corynebacterium glutamicum); test: SEC
substance,measurement,setting,value
H.CglI R408A (Motif VI mutant) (natural protein),stoichiometry N,[1],2
"H.CglI ΔL (a deletion of the residues 165–172), Loop 163–172 mutant (natural protein)",stoichiometry N,[2],2
"H-subunit of the restriction endonuclease CglI (H.CglI), wild type (natural protein)",stoichiometry N,[3],2
"H.CglI L1 (V169A), Loop 163–172 mutant (natural protein)",stoichiometry N,[4],2
H.CglI R379A (Motif V mutant) (natural protein),stoichiometry N,[5],2
H.CglI H282A + H290A (H/H motif double mutant) (natural protein),stoichiometry N,[6],2
H.CglI H290A (H/H motif mutant) (natural protein),stoichiometry N,[7],2
H.CglI Q405A (Motif VI mutant) (natural protein),stoichiometry N,[8],2
H.CglI H282A (H/H motif mutant) (natural protein),stoichiometry N,[9],2
